The record followed here is US20260250410A1, “ANTIBODY AND USE THEREOF” (SICHUAN HUIYU PHARMACEUTICAL CO., LTD., priority 2022, published 2026).

One assay addresses T1, HuCDCP1-C (Homo sapiens, UniProt Q9H5V8).
T1 construct: made in house; host or cells: HEK-293T
T1 sequence (Q9H5V8 30-667): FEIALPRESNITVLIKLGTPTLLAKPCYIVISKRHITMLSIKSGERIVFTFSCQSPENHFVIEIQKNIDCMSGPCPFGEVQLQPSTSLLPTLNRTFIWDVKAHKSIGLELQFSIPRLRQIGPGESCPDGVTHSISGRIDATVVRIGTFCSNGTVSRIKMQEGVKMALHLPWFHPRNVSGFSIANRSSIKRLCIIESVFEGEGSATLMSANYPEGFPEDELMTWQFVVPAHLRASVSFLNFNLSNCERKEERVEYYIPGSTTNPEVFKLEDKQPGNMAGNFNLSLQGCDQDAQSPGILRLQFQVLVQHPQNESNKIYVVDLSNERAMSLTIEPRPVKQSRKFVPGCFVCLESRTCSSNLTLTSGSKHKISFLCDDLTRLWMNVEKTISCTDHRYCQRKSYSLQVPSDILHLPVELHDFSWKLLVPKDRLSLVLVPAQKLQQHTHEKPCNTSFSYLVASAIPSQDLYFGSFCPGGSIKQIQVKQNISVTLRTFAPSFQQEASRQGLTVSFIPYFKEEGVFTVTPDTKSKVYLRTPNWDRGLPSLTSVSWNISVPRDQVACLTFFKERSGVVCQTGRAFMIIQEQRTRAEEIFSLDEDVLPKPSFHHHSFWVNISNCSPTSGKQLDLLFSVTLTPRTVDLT
The experiment in a line: Caterra affinity of humanized anti-CDCP1 antibodies. It is filed as binding. To be noted: HuCDCP1-C 2 μg/ml immobilized. The protocol:
The humanized anti-CDCP1 antibodies obtained from Example 11 were subjected to gene cloning, constructed into pTT5 expression vector for a small amount of expression in CHO cells (Expi-CHOS: Gibco A29127), and purified with an Fc affinity column (AT Protein A Diamond Plus. No. AA402312). Antibody purity was analyzed by HPLC and determined by Nanodrop. High-throughput affinity assay was carried out for a small amount of antibodies by Caterra.

Assay [1] has as its system MDA-MB-231 cells. The assay is described as follows: Endocytosis capacity of humanized antibodies. Format: cell-based, human. The note with it: antibody 1.5 μg/mL; for 1 h endocytosis (%): MDA-MB-231, 1 h at 37° C.; for 2 h endocytosis (%): MDA-MB-231, 2 h at 37° C. The protocol: The endocytosis capacity of the anti-CDCP1 humanized antibody was detected with reference to example 5. MDA-MB-231 cells were subjected to digestion with 5 mM EDTA, and plated at 3×10^4 cells/well after cell counting. After adding an Fc blocker and blocking at room temperature for 10 mins, a test antibody (1.5 μg/mL) was added, and the mixture was incubated at 4° C. for 30 mins, centrifuged, and washed twice with PBS+2% FBS, then the cells were divided into three equal portions (labeled as 0 h, 1 h, 2 h), cells labeled as 1 h and 2 h time points were added to 200 μL of cell culture medium, and cultured at 37° C. for 1 h and 2 h, respectively. Cells at 0 h point were centrifuged, a secondary antibody (PE anti-human IgG Fc Antibody, Biolegend, 410708) was added, and the mixture was incubated at 4° C. for 30 mins, centrifuged, and washed twice with PBS+2% FBS, and detection was performed using a flow cytometer. After incubation of cells labeled as 1 h and 2 h points at 37° C. was completed, a secondary antibody was added (in the same steps as those at 0 h point), Geo-MFI of the signal under the same voltage was collected as detection signal at 0 h, and antibody internalization rate was calculated according to the following equation: Internalization (%)=(Geo-MFI (0 h)-Geo-MFI (1, 2 h))/Geo-MFI (0 h)×100%.

In assay [2] the test system is MDA-MB-231 cells. The experiment in a line: Transwell tumor cell migration experiment. It is filed as cell-based, human. The note with it: MDA-MB-231, antibody 10 μg/ml. The protocol:
In order to determine the effect of antibodies on tumor cell metastasis, the migration ability of tumor cells was examined in this study according to a transwell experiment. The specific cell migration experiment involved culturing and collecting MDA-MB-231 cells, washing them once with PBS, adjusting the density to 8×10^5 cells/mL, adding the antibody to be tested to the cells such that the working concentration thereof was 10 μg/ml, co-incubating for 30 mins, adding a cell suspension to the upper chamber of the transwell chamber, placing the transwell chamber in the incubator for 12-48 h, then removing the chamber (transwell chamber, to examine cell migration ability), immobilizing the cells, staining the cells with crystal violet for 15 mins, washing, air drying, mounting, and taking photos of 4-5 fields of view under a microscope, and counting the number or area of the stained cells using imageJ analysis software, the number or area was used as the basis for determining tumor cell migration.

The subject of assay [3] is MDA-MB-231 cells. The experiment in a line: Endocytosis capacity of murine monoclonal antibody (flow cytometry internalization). It is filed as cell-based, human. The note with it: antibody 1.5 μg/mL; for Internalization MDA-MB-231 (%) 2 h: MDA-MB-231, 2 h at 37° C. Here is the method: (§1) The endocytosis capacity of the antibody was detected for 0.5 to 2 hours. MDA-MB-231 and PC3 cells were subjected to digestion with 5 mM EDTA, and plated at 4×10^4 cells/well after cell counting. After adding an Fc blocker (Human TruStain FcX™, Biolegend, 422302) and blocking at room temperature for 10 mins, a test antibody (1.5 μg/mL) was added, and the mixture was incubated at 4° C. for 30 mins, centrifuged, and washed twice with PBS+2% FBS, then the cells were divided into four equal portions (labeled as 0 h, 0.5 h, 1 h, 2 h), cells labeled as 0.5 h, 1 h, 2 h time points were added to a cell culture medium at 200 µL/well, and cultured at 37° C. for 0.5 h, 1 h, 2 h, respectively. Cells at 0 h point were centrifuged to remove supernatant, a secondary antibody (PE anti-human IgG Fc Antibody, Biolegend, 410708) was added, and the mixture was incubated at 4° C. for 30 mins, centrifuged, and washed twice with PBS+2% FBS, and detection was performed using a flow cytometer. After incubation of cells labeled as 0.5 h, 1 h, and 2 h points at 37° C. was completed, a secondary antibody was added (in the same steps as those at 0 h point), Geo-MFI of the signal under the same voltage was collected as detection signal at 0 h, and antibody internalization rate was calculated according to the following equation: Internalization (%)=(Geo-MFI (0 h)-Geo-MFI (0.5, 1, 2 h))/Geo-MFI (0 h)×100%.

The test system of the next assay is PC3 cells. The description is as above. Format: cell-based, human. To be noted: antibody 1.5 μg/mL; for Internalization PC3 (%) 2 h: PC3, 2 h at 37° C. The protocol:
as §1

Assay [4] concerns MDA-MB-231 cells. The assay is described as follows: Effect of antibody on tumor cell proliferation (CellTiter-Glo). Format: cell-based, human. The note with it: MDA-MB-231, 96 h. The protocol:
(§2) 3000 cells (breast cancer MDA-MB-231, prostate cancer PC-3 cells)/well were plated onto 96-well plates overnight, an antibody at a final concentration of 500 nM to 0.00128 nM (100 nM to 0.000256 nM, 100, 20, 4, 0.8, 0.16, 0.032, 0.0064, 0.00128, 0.000256 nM, respectively) was added; after a 5-fold dilution across 9 concentration points and culturing in a CO2 incubator at 37° C. for 96 h, half of the medium (100 μL) was discarded, and 100 μL of CellTiter-Glo Luminescent Cell Viability assay reagent (Promega, cat #G7570) was added to detect signal values on a BMG microplate reader. The inhibition of antibody on tumor cell growth was calculated by graphpad fitting based on the signal value and antibody concentration.
Background: ATP-based viability assays read luminescence as a measure of living cells.

Another assay deals with PC-3 cells. The description is as above. It is filed as cell-based, human. To be noted: PC-3, 96 h. The protocol:
as §2

B1: 1CP-129: humanized anti-CDCP1 antibody produced by 3C11; VH SEQ ID NO: 340, VL SEQ ID NO: 352 (antibody, V domains shown)
VH: QVQLVQSGAEVKKPGASVKVSCKASGYNFISYWLHWVRQAPGQGLEWMGGIYPGNTDTTYNQKFKGRVTMTADTSTSTVYMELSSLRSEDTAVYYCIRYDYDRGMDYWGQGTLVTVSS
VL: DIQMTQSPSSLSASVGDRVTITCRASEDIYYRLAWYQQKPGKAPKLLISGATALETGVPSRFSGSGSGKDYTLTISSLQPEDIATYYCQHYWNIPWTFGQGTKVEIK
modifications: humanized antibody 3C11 heavy chain variable region 02; humanized antibody 3C11 light chain variable region 02
Take B1: in the assay with HuCDCP1-C, the “ka” value amounted to 160000 M⁻¹ s⁻¹ and the “kd” value was found to be 1e-05 s⁻¹. For the same molecule, in the assay on MDA-MB-231 cells [1], the “1 h endocytosis (%)” value came out at 36.18% and the “2 h endocytosis (%)” value came out at 54.25%.

B2: 14A10C5: anti-CDCP1 murine monoclonal antibody (hybridoma); VH SEQ ID NO: 257, VL SEQ ID NO: 307 (antibody, V domains shown)
VH: EVKLVESGPGILQPSQTLSLTCSFSGFSLSTSGMGVSWIRQPSGKGLEWLAHIYWDDEKRYNPSLKSRLTISKDTSSNQVFLKITSVDTADTATYYCAREGSANWEAMDYWGQGTTVTVSS
VL: DIVMTQAALSLPVSLGDQASISCRSSQNIVYTNGITYLEWYLQKPGQSPKLLIYKVSNRFSGVPDRFSGSGSATDFTLKISRVEAEDLGVYYCFQSSHVPWTFGGGTKLEIK
modifications: 14A10C5 heavy chain variable region; 14A10C5 light chain variable region
B2: the “effect on tumor cell migration (transwell, FIG. 4c)” value in the assay with MDA-MB-231 cells [2] is “better capability to inhibit tumor cell migration than SEQ135”. In addition, the “Internalization MDA-MB-231 (%) 2 h” value in the assay with MDA-MB-231 cells [3] worked out at 39.23%. In addition, the “Internalization PC3 (%) 2 h” value with PC3 cells was 51.73%.

B3: 6A7: anti-CDCP1 murine monoclonal antibody (hybridoma); VH SEQ ID NO: 243, VL SEQ ID NO: 294 (antibody, V domains shown)
VH: EVQLKESGAELVRPGASVKVSCKASGYSFTSYWMNWVKQRPGQGLEWIGMIHPSDSETKLNQKFRDRASLTVDKSSSTAYMQLSSPTSEDSAVYYCTINYESFYYAMDYWGQGTTVTVSS
VL: DIVMTQSPASLAVSLGQRATISCRASKSVSTSGYSYMHWYQQKPGQPPKLLLYLASNLESGVPARFSGSGSGADFTLNIHPVEEEDAATYYCLHSRELPYTFGGGTKLEIK
modifications: 6A7 heavy chain variable region; 6A7 light chain variable region
Turning to B3, in the assay on MDA-MB-231 cells [4], the “effect on tumor cell growth (FIG. 4a)” value was “did not exhibit an effect on tumor cell growth”. Further, the “effect on tumor cell growth (FIG. 4b)” value with PC-3 cells was “did not exhibit an effect on tumor cell growth”. Besides, in the assay with MDA-MB-231 cells [2], the “effect on tumor cell migration (transwell, FIG. 4c)” value is listed as “better capability to inhibit tumor cell migration than SEQ135”. Also, in the assay with MDA-MB-231 cells [3] (MDA-MB-231, 0.5 h at 37° C.), the “Internalization MDA-MB-231 (%) 0.5 h” value was determined as 28.97%. For the same molecule, the “Internalization MDA-MB-231 (%) 1 h” value in the assay on MDA-MB-231 cells [3] (MDA-MB-231, 1 h at 37° C.) was determined as 43.77%. Further, the “Internalization MDA-MB-231 (%) 2 h” value in the assay on MDA-MB-231 cells [3] worked out at 58.78%. In addition, in the assay with PC3 cells (PC3, 0.5 h at 37° C.), the “Internalization PC3 (%) 0.5 h” value came out at 22.99%. The “Internalization PC3 (%) 1 h” value in the assay on PC3 cells (PC3, 1 h at 37° C.) is reported as 35.14%. Also, the “Internalization PC3 (%) 2 h” value with PC3 cells was found to be 49.86%.

B4: 1CP-152: humanized anti-CDCP1 antibody produced by 8C9; VH SEQ ID NO: 344, VL SEQ ID NO: 354 (antibody, V domains shown)
VH: EVQLVESGGGLVQPGRSLRLSCTTSGLTFTHYHMSWVRQAPGKGLEWVAIIRNKAYGYTTDYSASVRGRFTISRDDSKSILYLQMNSLKTEDTAVYYCVREGGYGYDGTFAYWGQGTLVTVSS
VL: DIQMTQSPSSLSASVGDRVTITCRASESVDNYGISFMNWFQQKPGQAPKLLIYAASNQGSGVPSRFSGSGSGTDFTLTISSMQPEDFATYYCQQSKEVPRTFGGGTKVEIK
modifications: humanized antibody 8C9 heavy chain variable region 02; humanized antibody 8C9 light chain variable region 01
In the case of B4, in the assay with HuCDCP1-C, the “ka” value amounted to 114000 M⁻¹ s⁻¹ and the “kd” value was found to be 0.000465 s⁻¹. For the same molecule, in the assay on MDA-MB-231 cells [1], the “1 h endocytosis (%)” value turned out to be 54.39% and the “2 h endocytosis (%)” value came out at 69.96%.

B5: 1CP-157: humanized anti-CDCP1 antibody produced by 8C9; VH SEQ ID NO: 345, VL SEQ ID NO: 355 (antibody, V domains shown)
VH: EVQLVESGGGLVQPGRSLRLSCTTSGLTFTHYHMSWVRQAPGKGPEWVAIIRNKAYGYTTDYSASVRGRFTISRDDSKSILYLQMNSLKTEDTAVYYCVREGGYGYDGTFAYWGQGTLVTVSS
VL: DIQMTQSPSSLSASVGDRVTITCRASESVDNYGISFMNWFQQKPGQPPKLLIYAASNQGSGVPSRFSGSGSGTDFTLTISSMQPEDFATYYCQQSKEVPRTFGGGTKVEIK
modifications: humanized antibody 8C9 heavy chain variable region 03; humanized antibody 8C9 light chain variable region 02
As for B5, in the assay with HuCDCP1-C, the “ka” value amounted to 122000 M⁻¹ s⁻¹ and the “kd” value came to 0.000385 s⁻¹. For the same molecule, in the assay with MDA-MB-231 cells [1], the “1 h endocytosis (%)” value is reported as 56.06% and the “2 h endocytosis (%)” value stood at 70.74%.
